Test results as given in patent US20030113787A1 (Takeda / Millennium, published 2003).

T1: Bcl-10-CARD/AD (mouse, UniProt Q04207 364-549; O95999 1-104)
T1 sequence (looked up): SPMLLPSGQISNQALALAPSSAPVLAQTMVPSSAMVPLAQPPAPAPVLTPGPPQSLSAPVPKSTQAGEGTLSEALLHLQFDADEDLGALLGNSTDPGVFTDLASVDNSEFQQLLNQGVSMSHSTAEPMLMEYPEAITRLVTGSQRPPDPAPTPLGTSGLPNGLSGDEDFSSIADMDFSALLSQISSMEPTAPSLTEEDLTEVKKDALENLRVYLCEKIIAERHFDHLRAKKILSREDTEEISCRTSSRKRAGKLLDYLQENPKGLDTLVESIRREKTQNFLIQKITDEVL

B1: Bcl-10-CARD/BD (other, UniProt P04386 1-147, looked up)
chain: MKLLSSIEQACDICRLKKLKCSKEKPKCAKCLKNNWECRYSPKTKRSPLTRAHLTEVESRLERLEQLFLLIFPREDLDMILKMDSLQDIKALLTGLFVQDNVNKDAVTDRLASVETDMPLTLRQHRISATSSSEESSNKGQRQLTVSMEPTAPSLTEEDLTEVKKDALENLRVYLCEKIIAERHFDHLRAKKILSREDTEEISCRTSSRKRAGKLLDYLQENPKGLDTLVESIRREKTQNFLIQKITDEVL
notes: range 1-147;range 1-104; Two-hybrid construct in pCMV-BD; also called CARD of Bcl-10; CARD of Bcl10
B2: RICK CARD domain (residues 417-540) in pCMV-BD (other, UniProt P04386 1-147, looked up)
chain: MKLLSSIEQACDICRLKKLKCSKEKPKCAKCLKNNWECRYSPKTKRSPLTRAHLTEVESRLERLEQLFLLIFPREDLDMILKMDSLQDIKALLTGLFVQDNVNKDAVTDRLASVETDMPLTLRQHRISATSSSEESSNKGQRQLTVSAIINPLSTAGNSERLQPGIAQQWIQSKREDIVNQMTEACLNQSLDALLSRDLIMKEDYELVSTKPTRTSKVRQLLDTTDIQGEEFAKVIVQKLKDNKQMGLQPYPEILVVSRSPSLNLLQNKSM
notes: range 1-147;range 417-540; Member of the two-hybrid CARD panel
B3: CARD-9-CARD/AD (other, mouse)
chain: SPMLLPSGQISNQALALAPSSAPVLAQTMVPSSAMVPLAQPPAPAPVLTPGPPQSLSAPVPKSTQAGEGTLSEALLHLQFDADEDLGALLGNSTDPGVFTDLASVDNSEFQQLLNQGVSMSHSTAEPMLMEYPEAITRLVTGSQRPPDPAPTPLGTSGLPNGLSGDEDFSSIADMDFSALLSQISSMSDYENDDECWNVLEGFRVTLTSVIDPSRITPYLRQCKVLNPDDEEQVLSDPNLVIRKRKVGVLLDILQRTGHKGYVAFLESLELYYPQLYKKVTGKEPARVFSMIIDAS
B4: CARD-9-CARD/BD (other, yeast)
chain: MKLLSSIEQACDICRLKKLKCSKEKPKCAKCLKNNWECRYSPKTKRSPLTRAHLTEVESRLERLEQLFLLIFPREDLDMILKMDSLQDIKALLTGLFVQDNVNKDAVTDRLASVETDMPLTLRQHRISATSSSEESSNKGQRQLTVSMSDYENDDECWNVLEGFRVTLTSVIDPSRITPYLRQCKVLNPDDEEQVLSDPNLVIRKRKVGVLLDILQRTGHKGYVAFLESLELYYPQLYKKVTGKEPARVFSMIIDAS
B5: RAIDD CARD domain (residues 1-108) in pCMV-BD (other, UniProt P04386 1-147, looked up)
chain: MKLLSSIEQACDICRLKKLKCSKEKPKCAKCLKNNWECRYSPKTKRSPLTRAHLTEVESRLERLEQLFLLIFPREDLDMILKMDSLQDIKALLTGLFVQDNVNKDAVTDRLASVETDMPLTLRQHRISATSSSEESSNKGQRQLTVSMEARDKQVLRSLRLELGAEVLVEGLVLQYLYQEGILTENHIQEINAQTTGLRKTMLLLDILPSRGPKAFDTFLDSLQEFPWVREKLKKAREEAMTDLPAGDRLTGIPS
notes: range 1-147;range 1-108; Member of the two-hybrid CARD panel
B6: CARD-11-CARD fused to the NF-kB activation domain (pCMV-CARD-11/AD) (other, mouse)
chain: SPMLLPSGQISNQALALAPSSAPVLAQTMVPSSAMVPLAQPPAPAPVLTPGPPQSLSAPVPKSTQAGEGTLSEALLHLQFDADEDLGALLGNSTDPGVFTDLASVDNSEFQQLLNQGVSMSHSTAEPMLMEYPEAITRLVTGSQRPPDPAPTPLGTSGLPNGLSGDEDFSSIADMDFSALLSQISSEEDALWENVECNRHMLSRYINPAKLTPYLRQCKVIDEQDEDEVLNAPMLPSKINRAGRLLDILHTKGQRGYVVFLESLEFYYPELYKLVTGKE
B7: caspase-12 CARD domain (residues 1-121) in pCMV-BD (other, UniProt P04386 1-147, looked up)
chain: MKLLSSIEQACDICRLKKLKCSKEKPKCAKCLKNNWECRYSPKTKRSPLTRAHLTEVESRLERLEQLFLLIFPREDLDMILKMDSLQDIKALLTGLFVQDNVNKDAVTDRLASVETDMPLTLRQHRISATSSSEESSNKGQRQLTVSMAARRTHERDPIYKIKGLAKDMLDGVFDDLVEKNVLNGDELLKIGESASFILNKAENLVENFLEKTDMAGKIFAGHIANSQEQLSLQFSNDEDDGPQKICTPSSPSESKRKVEDDEMEVNA
notes: range 1-147;range 1-121; Member of the two-hybrid CARD panel
B8: ARC CARD domain (residues 1-110) in pCMV-BD (other, UniProt P04386 1-147, looked up)
chain: MKLLSSIEQACDICRLKKLKCSKEKPKCAKCLKNNWECRYSPKTKRSPLTRAHLTEVESRLERLEQLFLLIFPREDLDMILKMDSLQDIKALLTGLFVQDNVNKDAVTDRLASVETDMPLTLRQHRISATSSSEESSNKGQRQLTVSMGNAQERPSETIDRERKRLVETLQADSGLLLDALLARGVLTGPEYEALDALPDAERRVRRLLLLVQGKGEAACQELLRCAQRTAGAPDPAWDWQHVGPGYRDRSYDPPCP
notes: range 1-147;range 1-110; Member of the two-hybrid CARD panel
B9: CARD-4 CARD domain (residues 1-119) in pCMV-BD (other, UniProt P04386 1-147, looked up)
chain: MKLLSSIEQACDICRLKKLKCSKEKPKCAKCLKNNWECRYSPKTKRSPLTRAHLTEVESRLERLEQLFLLIFPREDLDMILKMDSLQDIKALLTGLFVQDNVNKDAVTDRLASVETDMPLTLRQHRISATSSSEESSNKGQRQLTVSMEEQGHSEMEIIPSESHPHIQLLKSNRELLVTHIRNTQCLVDNLLKNDYFSAEDAEIVCACPTQPDKVRKILDLVQSKGEEVSEFFLYLLQQLADAYVDLRPWLLEIGFSPSLLTQSKV
notes: range 1-147;range 1-119; Member of the two-hybrid CARD panel
B10: Apaf-1 CARD domain (residues 1-108) in pCMV-BD (other, UniProt P04386 1-147, looked up)
chain: MKLLSSIEQACDICRLKKLKCSKEKPKCAKCLKNNWECRYSPKTKRSPLTRAHLTEVESRLERLEQLFLLIFPREDLDMILKMDSLQDIKALLTGLFVQDNVNKDAVTDRLASVETDMPLTLRQHRISATSSSEESSNKGQRQLTVSMDAKARNCLLQHREALEKDIKTSYIMDHMISDGFLTISEEEKVRNEPTQQQRAAMLIKMILKKDNDSYVSFYNALLHEGYKDLAALLHDGIPVVSSSSGKDSVSGITS
notes: as for B5
B11: ASC CARD domain (residues 92-195) in pCMV-BD (other, UniProt P04386 1-147, looked up)
chain: MKLLSSIEQACDICRLKKLKCSKEKPKCAKCLKNNWECRYSPKTKRSPLTRAHLTEVESRLERLEQLFLLIFPREDLDMILKMDSLQDIKALLTGLFVQDNVNKDAVTDRLASVETDMPLTLRQHRISATSSSEESSNKGQRQLTVSGSGAAPAGIQAPPQSAAKPGLHFIDQHRAALIARVTNVEWLLDALYGKVLTDEQYQAVRAEPTNPSKMRKLFSFTPAWNWTCKDLLLQALRESQSYLVEDLERS
notes: range 1-147;range 92-195; Member of the two-hybrid CARD panel

What was measured:
[1] = target: Bcl-10 dominant negative deletion mutant (amino acids 1-104) (UniProt O95999); experiment: cell-based or functional assay
CARD-9-CARD/AD = target: B3; experiment: mammalian two-hybrid, 293T cells
Description: (§1) For the additional mammalian two-hybrid assays, 293T cells in 6-well plates (35-mm wells) were transfected with the following plasmids: 750 ng of pCMV-CARD-9/AD, 750 ng of pCMV-CARD/BD, 250 ng of pFR-Luc firefly reporter (Stratagene), and 250 ng of pRL-TK renilla reporter (Promega). For NF-?B assays, 293T cells were transfected with the following plasmids: 900 ng of pNF-kB luciferase reporter (Stratagene), 100 ng of pRL-TK renilla reporter (Promega) and 1000 ng of indicated expression plasmids. Cells were harvested 24 h after transfection, and firefly luciferase activity was determined using the Dual-Luciferase Reporter Assay System (Promega). In addition, renilla luciferase activity was determined and used to normalize transfection efficiencies.
(§2) To identify the binding partners of CARD-11, a mammalian two-hybrid analysis was performed using the CARD domains of 15 known proteins. For mammalian two-hybrid assays, 293T cells in 6-well plates (35-mm wells) were transfected with the following plasmids: 750 ng of pCMV-CARD-11/AD, 750 ng of pCMV-BD fused to individual CARD domains, 250 ng of pFR-Luc firefly reporter (Stratagene), and 250 ng of pRL-TK renilla reporter (Promega). pCMV-CARD-11 /AD and pCMV-CARD/BD plasmids were constructed by inserting individual CARD domains into pCMV-CARD/AD and pCMV-BD, respectively (Stratagene): Bcl-10 (residues 1-104), ARC (residues 1-110), RICK (residues 417-540), CARD-4 (residues 1-1 19), ASC (residues 92-195), caspase-I (residues 1-110), caspase-2 (residues 1-122), caspase-4 (residues 1-108), caspase-9 (residues 1-111), caspase-11 (residues 1-122), caspase-12 (residues 1-121), IAP-1 (residues 423-543), IAP-2 (residues 450-557), Apaf-1 (residues 1-108) and RAIDD (residues 1 -108). Cells were harvested 24 hours after transfection, and firefly luciferase activity was determined using the Dual-Luciferase Reporter Assay System (Promega). In addition, renilla luciferase activity was determined and used to normalize transfection efficiencies.

[2] = target: B6; experiment: mammalian two-hybrid, 293T cells
Description: as §1, §2

Bcl-10-CARD/BD = target: B1; experiment: cell-based or functional assay
Bcl-10-CARD/AD = target: T1, Bcl-10-CARD/AD; experiment: cell-based or functional assay

human CARD-11 (from UniProt Q9BXL7 8-1154)
NF-κB activity (luciferase reporter) left with dominant negative Bcl-10 (times above background) [1]: 1.7 | NF-κB activity (luciferase reporter), reduction by dominant negative Bcl-10 [1]: 4 fold

human CARD-10 (from UniProt Q9BWT7 1-1032)
NF-κB activity (luciferase reporter) left with dominant negative Bcl-10 (times above background) [1]: 10 | NF-κB activity (luciferase reporter), reduction by dominant negative Bcl-10 [1]: 35 fold

B1
binding result (CARD-9-CARD/AD): binds

B2
binding result (CARD-9-CARD/AD): no binding | binding result [2]: no binding

B3
relative luciferase activity (mammalian two-hybrid reporter) (Bcl-10-CARD/BD): 250 fold

B4
luciferase activity (mammalian two-hybrid reporter) (Bcl-10-CARD/AD): 75 fold

B5
binding result (CARD-9-CARD/AD): no binding | binding result [2]: no binding

B6
relative luciferase activity (mammalian two-hybrid reporter) (Bcl-10-CARD/BD): 17 fold

B7
binding result (CARD-9-CARD/AD): no binding | binding result [2]: no binding

B8
binding result (CARD-9-CARD/AD): no binding | binding result [2]: no binding

B9
binding result (CARD-9-CARD/AD): no binding | binding result [2]: no binding

B10
binding result (CARD-9-CARD/AD): no binding | binding result [2]: no binding

B11
binding result (CARD-9-CARD/AD): no binding | binding result [2]: no binding
